{
  "source": "paper doi:10.1101/2020.12.03.409334",
  "target": "4R1N tau::mCherry::Cry2Olig chimera (UniProt P10636)",
  "experiment": "native gel or EMSA",
  "data": [
    {"substance": "4R1N tau::mCherry::Cry2Olig chimera (from UniProt P10636-7 1-412)", "values": [
      {"measurement": "stoichiometry N", "value": 2}
    ]}
  ]
}
